Assay results: patent publication US20240368242A1
One block for each substance: values may come before it.

Tests used:
FcRn-His (Example 11) = assay: SPR (BioRad ProteOn XPR 360), His-tagged target chip-bound
Human FcRn (human) = Human FcRn (human) (UniProt P55899); assay: SPR, binding to human FcRn
Human FcγR1A = assay: SPR, binding to human FcγR1A
[1] = biological target: murine OX40 expressed on CHOK1 cells (CHOK1/mOX40) (murine) (UniProt P47741); assay: flow cytometry on CHOK1-mOX40 cells
[2] = biological target: recombinant human CD47 protein (human) (UniProt Q08722); assay: SPR, binding to human CD47
Chain of recombinant human CD47 protein (human) (Q08722 19-139 limits assumed): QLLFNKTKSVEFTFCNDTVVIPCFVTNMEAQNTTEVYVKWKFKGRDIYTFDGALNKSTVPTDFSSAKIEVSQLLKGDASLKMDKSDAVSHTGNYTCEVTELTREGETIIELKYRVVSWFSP

Chain of Human FcγR1A (chain, as listed by the source limits assumed): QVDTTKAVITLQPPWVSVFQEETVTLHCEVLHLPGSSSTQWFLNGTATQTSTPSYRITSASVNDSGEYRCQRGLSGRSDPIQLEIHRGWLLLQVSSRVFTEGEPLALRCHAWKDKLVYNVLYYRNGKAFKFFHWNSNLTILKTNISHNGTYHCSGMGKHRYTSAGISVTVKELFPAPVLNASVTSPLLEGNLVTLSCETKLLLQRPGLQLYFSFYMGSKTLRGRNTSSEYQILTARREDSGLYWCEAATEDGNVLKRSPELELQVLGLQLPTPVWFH
Chain of murine OX40 expressed on CHOK1 cells (CHOK1/mOX40) (murine) (P47741 20-272): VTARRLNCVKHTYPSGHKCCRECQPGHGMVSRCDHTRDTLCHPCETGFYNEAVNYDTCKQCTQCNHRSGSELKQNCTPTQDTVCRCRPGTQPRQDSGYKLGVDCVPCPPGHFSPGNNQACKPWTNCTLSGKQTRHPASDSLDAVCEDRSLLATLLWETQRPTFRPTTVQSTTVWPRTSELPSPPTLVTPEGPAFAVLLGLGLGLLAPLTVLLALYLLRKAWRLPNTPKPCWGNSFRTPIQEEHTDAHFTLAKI

Kd (FcRn-His (Example 11)): 8.08 nM
koff (FcRn-His (Example 11)): 0.0242 s⁻¹
kon (FcRn-His (Example 11)): 3e+06 M⁻¹ s⁻¹
Substance: IgG2A (control protein, Example 11) (antibody)

koff (Human FcRn (human)): 0.0046 s⁻¹
kon (Human FcRn (human)): 945000 M⁻¹ s⁻¹
koff (Human FcγR1A): 0.00044 s⁻¹
kon (Human FcγR1A): 24900 M⁻¹ s⁻¹
Substance: IgG1 (antibody)

affinity (cell binding assay) [1]: 15.2 nM
Substance: murine TIM3-Fc-OX40L chimeric protein (from UniProt Q8VIM0 20-193; P43488 51-198) (Fc fusion)

Kd [2]: 3.16 nM
koff [2]: 0.00239 s⁻¹
kon [2]: 756000 M⁻¹ s⁻¹
Substance: CD172a-Fc Cntl (Fc fusion)
